Assays:
[1] = molecular target: the molecule itself; assay: SEC; Superdex 200 prep grade, XK 16/70 column; 2 mL of 5 mg/mL protein; 40 mM Tris-HCl, 150 mM NaCl, pH 8.0; 1 mL/min; column calibrated with proteins of known size
[2] = substrate: Nc1ncnc2c1ncn2[C@@H]1O[C@H](COP(=O)(O)OP(=O)(O)OP(=O)(O)O)[C@@H](O)[C@H]1O; assay: HPLC (SCX column) detection of SAM formed; format: biochemical, Thermococcus kodakarensis; conditions: co-substrate L-methionine (10 mM in standard assay), 0.1 M Tris-HCl, 0.02 M MgCl2, 0.2 M KCl, pH 8.0, 37 °C
From the text: (§1) HPLC (SCX column) detection of SAM formed on TkMAT

[3] = substrate: CSCC[C@H](N)C(=O)O; assay: HPLC (SCX column) detection of SAM formed; format: biochemical, Thermococcus kodakarensis; conditions: co-substrate ATP (10 mM in standard assay), 0.1 M Tris-HCl, 0.02 M MgCl2, 0.2 M KCl, pH 8.0, 37 °C
From the text: as §1

B1: methionine adenosyltransferase from Thermococcus kodakarensis (enzyme, UniProt Q5JF22 1-405, looked up)
chain: MAGKVRNIVVEELVRTPVEMQKVELVERKGIGHPDSIADGIAEAVSRALSREYVKRYGIILHHNTDQVEVVGGRAYPQFGGGEVIKPIYILLSGRAVEMVDREFFPVHEIALKAAKDYLRKAVRHLDLEHHVIIDSRIGQGSVDLVGVFNKAKKNPIPLANDTSFGVGYAPLSETEKIVLETEKYLNSDEFKKKYPAVGEDIKVMGLRKGDEIDLTIAAAIVDSEVDNPDDYMAVKEAIYEAAKGIVESHTERPTNIYVNTADDPKEGIYYITVTGTSAEAGDDGSVGRGNRVNGLITPNRHMSMEAAAGKNPVSHVGKIYNILSMLIANDIAEQVEGVEEVYVRILSQIGKPIDEPLVASVQIIPKKGYSIDVLQKPAYEIADEWLANITKIQKMILEDKVNVF
notes: methionine adenosyltransferase (S-adenosylmethionine synthase) of Thermococcus kodakarensis, gene cloned from genomic DNA into pET28a(+); the printed gene length (1155 bp) and primers may not fit this gene; Homodimer in solution by size exclusion chromatography; No removal of the His-tag is described; also called TkMAT; MAT
stoichiometry N [1]: 2 | Km [2]: 6.54 ± 2.49 mM | Km [3]: 0.31 ± 0.07 mM

— publication PMC3853416, “Structural and functional characterisation of the methionine adenosyltransferase from Thermococcus kodakarensis” (BMC Structural Biology, 2013)
